Experimental data published in IntAct's records for PubMed 17803912.

B1: Lymphocyte antigen 96 (Homo sapiens), Q9Y6Y9 (parent)
chain: MLPFLFFSTLFSSIFTEAQKQYWVCNSSDASISYTYCDKMQYPISINVNPCIELKRSKGLLHIFYIPRRDLKQLYFNLYITVNTMNLPKRKEVICRGSDDDYSFCRALKGETVNTTISFSFKGIKFSKGKYKCVVEAISGSPEEMLFCLEFVILHQPNSN

Variants of: B1
Conditions: with tlr4_human TLR4, O00206
Sequence of tlr4_human TLR4, O00206 (O00206 whole entry): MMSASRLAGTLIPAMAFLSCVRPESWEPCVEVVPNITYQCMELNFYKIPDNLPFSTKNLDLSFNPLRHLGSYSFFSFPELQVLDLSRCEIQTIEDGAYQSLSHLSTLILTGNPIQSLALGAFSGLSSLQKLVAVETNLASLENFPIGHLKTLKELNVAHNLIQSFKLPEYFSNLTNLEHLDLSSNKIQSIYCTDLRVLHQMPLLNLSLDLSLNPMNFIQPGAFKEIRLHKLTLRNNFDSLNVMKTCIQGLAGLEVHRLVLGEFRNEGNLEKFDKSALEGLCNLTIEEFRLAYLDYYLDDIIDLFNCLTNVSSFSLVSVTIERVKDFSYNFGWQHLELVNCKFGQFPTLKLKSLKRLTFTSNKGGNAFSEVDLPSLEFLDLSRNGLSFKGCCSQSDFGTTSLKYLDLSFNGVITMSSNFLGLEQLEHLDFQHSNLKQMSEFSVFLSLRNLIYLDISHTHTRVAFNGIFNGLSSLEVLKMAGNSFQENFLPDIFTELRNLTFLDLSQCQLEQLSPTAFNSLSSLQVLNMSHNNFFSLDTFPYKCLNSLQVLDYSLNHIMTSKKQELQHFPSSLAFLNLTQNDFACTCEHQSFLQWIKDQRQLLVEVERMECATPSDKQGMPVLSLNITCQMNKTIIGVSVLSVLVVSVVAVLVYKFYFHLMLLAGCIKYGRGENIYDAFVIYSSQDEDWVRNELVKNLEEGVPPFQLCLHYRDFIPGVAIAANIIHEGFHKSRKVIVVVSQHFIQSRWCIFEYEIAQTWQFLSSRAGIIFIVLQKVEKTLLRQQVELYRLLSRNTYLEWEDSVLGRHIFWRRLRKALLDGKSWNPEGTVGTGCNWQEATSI

Row | effect of a mutation on the interaction | Variant
1 | disrupting interaction | MLPFLFFSTLFSSIFTEAQKQYWVCNSSDASISYTYCDKMQYPISINVNPCIELKRSKGLLHIFYIPRRDLKQLYFNLYITVNTMNLPKRKEVICRGSDDDYSFCRALKGETVNTTISFSFKGIKFSKGKYKCVVEAISGSPEEMLFCLEFVILAQPNSN [H155A]
2 | disrupting interaction | MLPFLFFSTLFSSIFTEAQKQYWVCNSSDASISYTYCDKMQYPISINVNPCIELKRSKGLLHIFYIPRRDLKQLYFNLYITVNTMNLPKRKEVICRGSDDDYSFCRALKGETVNTTISFSFKGIKASKGKYKCVVEAISGSPEEMLFCLEFVILHQPNSN [F126A]
